Assay results taken from the supplement of paper PMC10567573.

B1: SOAT1 (parent)
chain: PSNGRIDIKQLIAKKIKLTAEAEE

Variants of: B1
Test: protein stability index of a GFP-peptide fusion (GPS, HEK-293T) (PSI 1-6); higher = more stable
Conditions: c terminus: a fixed tail appended
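Further: lentivirally expressed fusions sorted by FACS into six bins by GFP to DsRed ratio, PSI derived from sequencing read proportions per bin multiplied by bin number.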

Variant	protein stability index
PSNGRIDIKQGIAKKIKLTAEAEE [L11G]	3.75
PSNGRIDIKQDIAKKIKLTAEAEE [L11D]	4.04
PSNGRIDIKQCIAKKIKLTAEAEE [L11C]	3.5
PSNGRIDIKQSIAKKIKLTAEAEE [L11S]	3.75
PSNGRIDIKQNIAKKIKLTAEAEE [L11N]	3.6
PSNGRIDIKQRIAKKIKLTAEAEE [L11R]	3.93
PSNGRIDIKQKIAKKIKLTAEAEE [L11K]	3.68
PSNGRIDIKQEIAKKIKLTAEAEE [L11E]	4.15
PSNGRIDIKQYIAKKIKLTAEAEE [L11Y]	3.42
PSNGRIDIKQQIAKKIKLTAEAEE [L11Q]	3.58
PSNGRIDIKQIIAKKIKLTAEAEE [L11I]	3.17
PSNGRIDIKQVIAKKIKLTAEAEE [L11V]	3.57
PSNGRIDIKQHIAKKIKLTAEAEE [L11H]	3.97
PSNGRIDIKQTIAKKIKLTAEAEE [L11T]	4.3
PSNGRIDIKQFIAKKIKLTAEAEE [L11F]	3.38
PSNGRIDIKQPIAKKIKLTAEAEE [L11P]	3.66
PSNGRIDIKQWIAKKIKLTAEAEE [L11W]	3.67
PSNGRIDIKQAIAKKIKLTAEAEE [L11A]	3.83
PSNGRIDIKQMIAKKIKLTAEAEE [L11M]	3.22
PSNIRIDIKQLIAKKIKLTAEAEE [G4I]	3.18
PSNMRIDIKQLIAKKIKLTAEAEE [G4M]	3.61
PSNCRIDIKQLIAKKIKLTAEAEE [G4C]	3.33
PSNPRIDIKQLIAKKIKLTAEAEE [G4P]	4.09
PSNLRIDIKQLIAKKIKLTAEAEE [G4L]	3.48

Variant	protein stability index
PSNERIDIKQLIAKKIKLTAEAEE [G4E]	4.39
PSNVRIDIKQLIAKKIKLTAEAEE [G4V]	3.04
PSNNRIDIKQLIAKKIKLTAEAEE [G4N]	3.76
PSNHRIDIKQLIAKKIKLTAEAEE [G4H]	3.36
PSNRRIDIKQLIAKKIKLTAEAEE [G4R]	3.56
PSNDRIDIKQLIAKKIKLTAEAEE [G4D]	4.92
PSNYRIDIKQLIAKKIKLTAEAEE [G4Y]	2.91
PSNKRIDIKQLIAKKIKLTAEAEE [G4K]	3.77
PSNFRIDIKQLIAKKIKLTAEAEE [G4F]	3.56
PSNQRIDIKQLIAKKIKLTAEAEE [G4Q]	3.57
PSNWRIDIKQLIAKKIKLTAEAEE [G4W]	2.85
PSNSRIDIKQLIAKKIKLTAEAEE [G4S]	3.57
PSNARIDIKQLIAKKIKLTAEAEE [G4A]	3.77
PSNTRIDIKQLIAKKIKLTAEAEE [G4T]	3.49
PSNGRIDIKQLFAKKIKLTAEAEE [I12F]	3.5
PSNGRIDIKQLQAKKIKLTAEAEE [I12Q]	4.17
PSNGRIDIKQLHAKKIKLTAEAEE [I12H]	3.89
PSNGRIDIKQLCAKKIKLTAEAEE [I12C]	3.83
PSNGRIDIKQLAAKKIKLTAEAEE [I12A]	3.53
PSNGRIDIKQLNAKKIKLTAEAEE [I12N]	3.99
PSNGRIDIKQLDAKKIKLTAEAEE [I12D]	4.28
PSNGRIDIKQLLAKKIKLTAEAEE [I12L]	3.17
PSNGRIDIKQLEAKKIKLTAEAEE [I12E]	4.35
PSNGRIDIKQLGAKKIKLTAEAEE [I12G]	3.9

Variant	protein stability index
PSNGRIDIKQLRAKKIKLTAEAEE [I12R]	3.85
PSNGRIDIKQLPAKKIKLTAEAEE [I12P]	3.7
PSNGRIDIKQLKAKKIKLTAEAEE [I12K]	3.83
PSNGRIDIKQLMAKKIKLTAEAEE [I12M]	3.7
PSNGRSDIKQLIAKKIKLTAEAEE [I6S]	3.46
PSNGRLDIKQLIAKKIKLTAEAEE [I6L]	3.18
PSNGRCDIKQLIAKKIKLTAEAEE [I6C]	3.26
PSNGRDDIKQLIAKKIKLTAEAEE [I6D]	4.4
PSNGRWDIKQLIAKKIKLTAEAEE [I6W]	2.91
PSNGRPDIKQLIAKKIKLTAEAEE [I6P]	3.37
PSNGRNDIKQLIAKKIKLTAEAEE [I6N]	3.3
PSNGRKDIKQLIAKKIKLTAEAEE [I6K]	3.74
PSNGRGDIKQLIAKKIKLTAEAEE [I6G]	4.1
PSNGRRDIKQLIAKKIKLTAEAEE [I6R]	3.4
PSNGRYDIKQLIAKKIKLTAEAEE [I6Y]	3.51
PSNGRQDIKQLIAKKIKLTAEAEE [I6Q]	3.76
PSNGRMDIKQLIAKKIKLTAEAEE [I6M]	2.56
PSNGRADIKQLIAKKIKLTAEAEE [I6A]	3.79
PSNGRVDIKQLIAKKIKLTAEAEE [I6V]	3.32
PSNGRFDIKQLIAKKIKLTAEAEE [I6F]	2.83
PSNGRHDIKQLIAKKIKLTAEAEE [I6H]	3.61
PSNGREDIKQLIAKKIKLTAEAEE [I6E]	4.06
PSNGRTDIKQLIAKKIKLTAEAEE [I6T]	3.58
PVNGRIDIKQLIAKKIKLTAEAEE [S2V]	2.96

Variant	protein stability index
PWNGRIDIKQLIAKKIKLTAEAEE [S2W]	2.88
PYNGRIDIKQLIAKKIKLTAEAEE [S2Y]	2.88
PSNGRIDMKQLIAKKIKLTAEAEE [I8M]	3.44
PSNGRIDRKQLIAKKIKLTAEAEE [I8R]	4.06
PSNGRIDQKQLIAKKIKLTAEAEE [I8Q]	3.8
PSNGRIDKKQLIAKKIKLTAEAEE [I8K]	3.64
PSNGRIDLKQLIAKKIKLTAEAEE [I8L]	3.62
PSNGRIDNKQLIAKKIKLTAEAEE [I8N]	4.01
PSNGRIDYKQLIAKKIKLTAEAEE [I8Y]	4.13
PSNGRIDTKQLIAKKIKLTAEAEE [I8T]	4.48
PSNGRIDEKQLIAKKIKLTAEAEE [I8E]	4.62
PSNGRIDCKQLIAKKIKLTAEAEE [I8C]	4.06
PSNGRIDPKQLIAKKIKLTAEAEE [I8P]	3.38
PSNGRIDFKQLIAKKIKLTAEAEE [I8F]	3.54
PSNGRIDWKQLIAKKIKLTAEAEE [I8W]	3.08
PSNGRIDDKQLIAKKIKLTAEAEE [I8D]	4.48
PSNGRIDHKQLIAKKIKLTAEAEE [I8H]	3.12
PSNGRIDSKQLIAKKIKLTAEAEE [I8S]	3.99
PSNGRIDGKQLIAKKIKLTAEAEE [I8G]	3.89
PSNGRIDVKQLIAKKIKLTAEAEE [I8V]	3.88
PSNGRIDAKQLIAKKIKLTAEAEE [I8A]	3.42
PSNGRIDIKCLIAKKIKLTAEAEE [Q10C]	3.19
PSNGRIDIKLLIAKKIKLTAEAEE [Q10L]	3.18
PSNGRIDIKALIAKKIKLTAEAEE [Q10A]	3.35

Variant	protein stability index
PSNGRIDIKYLIAKKIKLTAEAEE [Q10Y]	2.43
PSNGRIDIKHLIAKKIKLTAEAEE [Q10H]	2.57
PSNGRIDIKRLIAKKIKLTAEAEE [Q10R]	2.7
PSNGRIDIKILIAKKIKLTAEAEE [Q10I]	2.18
PSNGRIDIKDLIAKKIKLTAEAEE [Q10D]	3.58
PSNGRIDIKTLIAKKIKLTAEAEE [Q10T]	3.45
PSNGRIDIKPLIAKKIKLTAEAEE [Q10P]	3.88
PSNGRIDIKKLIAKKIKLTAEAEE [Q10K]	3.3
PSNGRIDIKNLIAKKIKLTAEAEE [Q10N]	3.21
PSNGRIDIKVLIAKKIKLTAEAEE [Q10V]	2.33
PSNGRIDIKFLIAKKIKLTAEAEE [Q10F]	2.65
PSNGRIDIKSLIAKKIKLTAEAEE [Q10S]	3.1
PSNGRIDIKGLIAKKIKLTAEAEE [Q10G]	3.59
PSNGRIDIKMLIAKKIKLTAEAEE [Q10M]	2.67
PSNGRIDIKWLIAKKIKLTAEAEE [Q10W]	2.35
PSNGRIDIKELIAKKIKLTAEAEE [Q10E]	3.73
PSWGRIDIKQLIAKKIKLTAEAEE [N3W]	3.45
PSIGRIDIKQLIAKKIKLTAEAEE [N3I]	3.87
PSKGRIDIKQLIAKKIKLTAEAEE [N3K]	3.96
PSGGRIDIKQLIAKKIKLTAEAEE [N3G]	3.88
PSPGRIDIKQLIAKKIKLTAEAEE [N3P]	4.11
PSYGRIDIKQLIAKKIKLTAEAEE [N3Y]	3.42
PSCGRIDIKQLIAKKIKLTAEAEE [N3C]	3.86
PSAGRIDIKQLIAKKIKLTAEAEE [N3A]	4.25

Variant	protein stability index
PSHGRIDIKQLIAKKIKLTAEAEE [N3H]	4.32
PSQGRIDIKQLIAKKIKLTAEAEE [N3Q]	4.09
PSDGRIDIKQLIAKKIKLTAEAEE [N3D]	4.38
PSTGRIDIKQLIAKKIKLTAEAEE [N3T]	4.2
PSRGRIDIKQLIAKKIKLTAEAEE [N3R]	3.93
PSMGRIDIKQLIAKKIKLTAEAEE [N3M]	3.66
PSEGRIDIKQLIAKKIKLTAEAEE [N3E]	4.27
PSFGRIDIKQLIAKKIKLTAEAEE [N3F]	3.55
PSLGRIDIKQLIAKKIKLTAEAEE [N3L]	3.46
PSVGRIDIKQLIAKKIKLTAEAEE [N3V]	3.58
PSSGRIDIKQLIAKKIKLTAEAEE [N3S]	4.13
PSNGRILIKQLIAKKIKLTAEAEE [D7L]	3.38
PSNGRIEIKQLIAKKIKLTAEAEE [D7E]	3.4
PSNGRICIKQLIAKKIKLTAEAEE [D7C]	3.12
PSNGRITIKQLIAKKIKLTAEAEE [D7T]	2.97
PSNGRIGIKQLIAKKIKLTAEAEE [D7G]	3.02
PSNGRIWIKQLIAKKIKLTAEAEE [D7W]	3.46
PSNGRIPIKQLIAKKIKLTAEAEE [D7P]	3.23
PSNGRIHIKQLIAKKIKLTAEAEE [D7H]	3.65
PSNGRIIIKQLIAKKIKLTAEAEE [D7I]	3.08
PSNGRISIKQLIAKKIKLTAEAEE [D7S]	3.58
PSNGRIRIKQLIAKKIKLTAEAEE [D7R]	2.94
PSNGRINIKQLIAKKIKLTAEAEE [D7N]	3.33
PSNGRIVIKQLIAKKIKLTAEAEE [D7V]	2.41

Variant	protein stability index
PSNGRIMIKQLIAKKIKLTAEAEE [D7M]	2.89
PSNGRIAIKQLIAKKIKLTAEAEE [D7A]	2.96
PSNGRIYIKQLIAKKIKLTAEAEE [D7Y]	2.35
PSNGRIKIKQLIAKKIKLTAEAEE [D7K]	3.14
PSNGRIQIKQLIAKKIKLTAEAEE [D7Q]	3.01
PSNGRIFIKQLIAKKIKLTAEAEE [D7F]	2.83
PSNGRIDIWQLIAKKIKLTAEAEE [K9W]	2.02
PSNGRIDIYQLIAKKIKLTAEAEE [K9Y]	3.03
PSNGRIDIIQLIAKKIKLTAEAEE [K9I]	2.29
PSNGRIDIGQLIAKKIKLTAEAEE [K9G]	3.39
PSNGRIDICQLIAKKIKLTAEAEE [K9C]	3.25
PSNGRIDITQLIAKKIKLTAEAEE [K9T]	3.23
PSNGRIDIPQLIAKKIKLTAEAEE [K9P]	3.69
PSNGRIDIVQLIAKKIKLTAEAEE [K9V]	2.9
PSNGRIDINQLIAKKIKLTAEAEE [K9N]	3.66
PSNGRIDIQQLIAKKIKLTAEAEE [K9Q]	3.47
PSNGRIDIEQLIAKKIKLTAEAEE [K9E]	4.03
PSNGRIDIRQLIAKKIKLTAEAEE [K9R]	2.74
PSNGRIDIAQLIAKKIKLTAEAEE [K9A]	3.04
PSNGRIDIFQLIAKKIKLTAEAEE [K9F]	2.06
PSNGRIDILQLIAKKIKLTAEAEE [K9L]	2.77
PSNGRIDIMQLIAKKIKLTAEAEE [K9M]	2.99
PSNGRIDIHQLIAKKIKLTAEAEE [K9H]	3.07
PSNGRIDIDQLIAKKIKLTAEAEE [K9D]	3.87

Variant	protein stability index
PSNGRIDISQLIAKKIKLTAEAEE [K9S]	3.28
PSNGLIDIKQLIAKKIKLTAEAEE [R5L]	4.05
PSNGIIDIKQLIAKKIKLTAEAEE [R5I]	3.93
PSNGDIDIKQLIAKKIKLTAEAEE [R5D]	4.47
PSNGWIDIKQLIAKKIKLTAEAEE [R5W]	3.48
PSNGFIDIKQLIAKKIKLTAEAEE [R5F]	3.49
PSNGVIDIKQLIAKKIKLTAEAEE [R5V]	3.82
PSNGHIDIKQLIAKKIKLTAEAEE [R5H]	4
PSNGNIDIKQLIAKKIKLTAEAEE [R5N]	3.94
PSNGQIDIKQLIAKKIKLTAEAEE [R5Q]	3.13
PSNGPIDIKQLIAKKIKLTAEAEE [R5P]	4.16
PSNGSIDIKQLIAKKIKLTAEAEE [R5S]	3.75
PSNGMIDIKQLIAKKIKLTAEAEE [R5M]	3.55
PSNGEIDIKQLIAKKIKLTAEAEE [R5E]	4.42
PSNGTIDIKQLIAKKIKLTAEAEE [R5T]	4
PSNGYIDIKQLIAKKIKLTAEAEE [R5Y]	3.81
PSNGKIDIKQLIAKKIKLTAEAEE [R5K]	3.68
PSNGGIDIKQLIAKKIKLTAEAEE [R5G]	4.04
PSNGAIDIKQLIAKKIKLTAEAEE [R5A]	3.95
PSNGCIDIKQLIAKKIKLTAEAEE [R5C]	3.66
